Key:
[1] = target: T1, GST-tagged mouse DISC1 fragment 221-355aa (UniProt Q811T9)
T1 sequence: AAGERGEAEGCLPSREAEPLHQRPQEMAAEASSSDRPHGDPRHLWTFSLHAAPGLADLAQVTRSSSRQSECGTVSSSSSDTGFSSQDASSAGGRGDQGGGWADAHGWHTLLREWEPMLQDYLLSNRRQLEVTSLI

[2] = target: T2, GST-tagged mouse DISC1 fragment 596-852aa (UniProt Q811T9)
T2 sequence: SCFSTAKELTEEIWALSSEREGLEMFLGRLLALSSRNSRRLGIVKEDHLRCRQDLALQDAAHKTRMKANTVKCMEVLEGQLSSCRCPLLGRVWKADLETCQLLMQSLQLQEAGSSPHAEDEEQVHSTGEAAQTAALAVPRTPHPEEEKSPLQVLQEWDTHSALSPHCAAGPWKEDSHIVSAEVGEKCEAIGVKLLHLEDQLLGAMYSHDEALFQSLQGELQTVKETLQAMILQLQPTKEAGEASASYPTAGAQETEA

[3] = target: T3, GST-tagged mouse DISC1 fragment 356-595aa (UniProt Q811T9)
T3 sequence: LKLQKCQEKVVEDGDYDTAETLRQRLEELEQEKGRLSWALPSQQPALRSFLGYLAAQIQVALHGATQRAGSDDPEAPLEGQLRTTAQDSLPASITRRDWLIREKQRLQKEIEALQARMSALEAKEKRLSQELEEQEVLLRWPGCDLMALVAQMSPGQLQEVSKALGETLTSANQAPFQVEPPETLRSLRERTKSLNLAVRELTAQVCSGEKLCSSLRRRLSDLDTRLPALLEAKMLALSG

[4] = target: T4, GST-tagged mouse DISC1 fragment 1-220aa (UniProt Q811T9)
T4 sequence: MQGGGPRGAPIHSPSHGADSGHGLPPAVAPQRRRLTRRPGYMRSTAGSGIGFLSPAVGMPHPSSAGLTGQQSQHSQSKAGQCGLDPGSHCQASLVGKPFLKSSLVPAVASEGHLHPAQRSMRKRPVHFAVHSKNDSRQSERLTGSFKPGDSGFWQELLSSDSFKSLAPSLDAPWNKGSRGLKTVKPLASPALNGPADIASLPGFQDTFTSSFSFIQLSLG

With GST-GSK3β (recombinant, Active Motif) the “GSK3β autophosphorylation (Y216), in vitro kinase assay” value [1] was “at higher concentrations (2 µM), DISC1 fragments spanning 221-355 and 356-595 started to inhibit GSK3β autophosphorylation”, the “in vitro kinase assay: GST-β-catenin phosphorylation, GST-axin phosphorylation and GSK3β autophosphorylation at Y216” value (from here on “in vitro kinase assay … at Y216”) [1] was “none of the other 3 DISC1 fragments, GST-p25, or GST-CASK proteins inhibited GSK3β activity at this concentration (0.5 µM)” and the “in vitro kinase assay … at Y216” value [2] was “none of the other 3 DISC1 fragments, GST-p25, or GST-CASK proteins inhibited GSK3β activity at this concentration (0.5 µM)”. For the same substance, the “GSK3β autophosphorylation (Y216), in vitro kinase assay” value [3] was “at higher concentrations (2 µM), DISC1 fragments spanning 221-355 and 356-595 started to inhibit GSK3β autophosphorylation”, the “in vitro kinase assay … at Y216” value [3] was “none of the other 3 DISC1 fragments, GST-p25, or GST-CASK proteins inhibited GSK3β activity at this concentration (0.5 µM)” and the “GSK3β Y216 phosphorylation, dose response in vitro” value [4] was “no inhibition of GSK3β Y216 phosphorylation was observed at 0.1 µM and the inhibition of phosphorylation plateaued at 1 µM”. The “in vitro kinase assay … at Y216” value [4] was “potently inhibited β-catenin, axin and GSK3β phosphorylation at 0.5 µM”.
